T1: FLAG-tagged PME-1 S156A (catalytically inactive mutant) (human, UniProt Q9Y570 1-386)
T1 construct: Expressed in stably transfected ECC-1 cells and pulled down with FLAG resin; also called FLAG-PME-1 S156A; FLAG PME-1 S156A; not shown: FLAG tag
T1 sequence (looked up): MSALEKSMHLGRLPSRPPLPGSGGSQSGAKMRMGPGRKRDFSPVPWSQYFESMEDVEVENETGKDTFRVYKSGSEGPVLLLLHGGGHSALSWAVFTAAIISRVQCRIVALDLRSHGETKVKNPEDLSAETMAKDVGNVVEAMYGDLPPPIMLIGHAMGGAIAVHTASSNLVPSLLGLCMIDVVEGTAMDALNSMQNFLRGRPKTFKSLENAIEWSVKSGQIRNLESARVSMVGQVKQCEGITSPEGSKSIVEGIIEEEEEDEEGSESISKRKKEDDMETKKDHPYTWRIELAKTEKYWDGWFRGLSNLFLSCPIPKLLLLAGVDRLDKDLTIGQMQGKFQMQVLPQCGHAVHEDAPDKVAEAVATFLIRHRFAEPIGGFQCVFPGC

T2: FLAG-tagged PME-1 (wild-type protein methylesterase 1) (human, UniProt Q9Y570 1-386)
T2 construct: Expressed in stably transfected ECC-1 cells and pulled down with FLAG resin; also called FLAG-PME-1; not shown: FLAG tag
T2 sequence (looked up): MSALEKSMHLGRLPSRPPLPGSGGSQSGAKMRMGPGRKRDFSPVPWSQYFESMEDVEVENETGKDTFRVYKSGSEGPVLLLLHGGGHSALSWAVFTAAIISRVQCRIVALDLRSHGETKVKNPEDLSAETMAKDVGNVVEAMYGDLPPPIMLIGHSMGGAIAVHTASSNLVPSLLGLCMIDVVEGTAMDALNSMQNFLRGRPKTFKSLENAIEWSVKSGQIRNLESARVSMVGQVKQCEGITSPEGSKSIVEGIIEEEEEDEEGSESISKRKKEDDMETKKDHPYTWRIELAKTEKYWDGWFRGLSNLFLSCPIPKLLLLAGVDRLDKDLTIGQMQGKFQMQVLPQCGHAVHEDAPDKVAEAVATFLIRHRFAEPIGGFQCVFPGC


Tests used:
[1] = biological target: protein phosphatase 2A (PP2A); assay: cell-based or functional assay
[2] = biological target: T1, FLAG-tagged PME-1 S156A (catalytically …); assay: FLAG co-immunoprecipitation from ECC-1 lysate, Western blot with anti-Ppp6c
Description: (§1) Cells (post-transfection) were collected and cellular protein was extracted. Input depicts the relative expression of each protein in total cell lysate, whereas the elution depicts proteins that were immunoprecipitated with FLAG resin.
(§2) There are other protein phosphatases in the same family as PP2A in cells that share some similarity to PP2A. In this experiment, we examined if PME-1 binding to Ppp2ca is specific over other phosphatases. We chose to examine phosphatase 4 (PP4) and phosphatase 6 (PP6) since the C-terminal tail of the catalytic subunit of PP2A (i.e., Ppp2ca) is TPDYFL (amino acids 304-309 of SEQ ID NO: 12) (the substrate for PME-1 demethylation) is similar to that of protein phosphatase 4 (i.e., Ppp4c) (VADYFL) (amino acids 302-307 of SEQ ID NO: 13) and phosphatase 6 (i.e., Ppp6c), (TTPYFL) (amino acids 300-305 of SEQ ID NO: 14), respectively. Specifically, we examined if PME-1 may bind and demethylate PP4 or PP6.

[3] = biological target: T2, FLAG-tagged PME-1 (wild-type protein …); assay: as above
Description: as §1, §2

PP2A phosphatase activity (RL95-2 cells over-expressing PME-1) [1]	PP2A phosphatase activity (RL95-2 cells, shRNA against PPME1) (fold increase) [1]	binding result [2]	binding result [3]	Molecule
90 % decrease	30			PME-1 protein (endogenous, over-expressed or depleted in cells) (from UniProt Q9Y570 2-386) (enzyme)
		no binding	no binding	Ppp6c, the catalytic subunit of PP6 (endogenous) (enzyme, Endogenous protein in the lysate of the human ECC-1 cell line; also called phosphatase 6) MAPLDLDKYVEIARLCKYLPENDLKRLCDYVCDLLLEESNVQPVSTPVTVCGDIHGQFYDLCELFRTGGQVPDTNYIFMGDFVDRGYYSLETFTYLLALKAKWPDRITLLRGNHESRQITQVYGFYDECQTKYGNANAWRYCTKVFDMLTVAALIDEQILCVHGGLSPDIKTLDQIRTIERNQEIPHKGAFCDLVWSDPEDVDTWAISPRGAGWLFGAKVTNEFVHINNLKLICRAHQLVHEGYKFMFDEKLVTVWSAPNYCYRCGNIASIMVFKDVNTREPKLFRAVPDSERVIPPRTTTPYFL

From patent US20150284723A1 (MEDICAL DIAGNOSTIC LABORATORIES, published 2015)
